System: peptide library, one residue held at a place counted from the S/T acceptor
Assay: relative phosphorylation of the sub-library (ratio to the mean residue at this position); human; higher = residue favoured
Summary of the method: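 Spots on streptavidin membranes were phosphorimaged and quantified by densitometry to measure phosphorylation of biotinylated degenerate peptide sub-libraries by purified recombinant kinases, human or orthologue constructs. The reactions ran in 384-well plates for 90 min under kinase-specific conditions, with peptides at 50 μM and 50 μM ATP spiked with γ-32P-ATP. Relative sub-library phosphorylation is the ratio to the mean residue at that position.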

Chain of CHEK2, construct: Full length (O96017 whole entry, looked up): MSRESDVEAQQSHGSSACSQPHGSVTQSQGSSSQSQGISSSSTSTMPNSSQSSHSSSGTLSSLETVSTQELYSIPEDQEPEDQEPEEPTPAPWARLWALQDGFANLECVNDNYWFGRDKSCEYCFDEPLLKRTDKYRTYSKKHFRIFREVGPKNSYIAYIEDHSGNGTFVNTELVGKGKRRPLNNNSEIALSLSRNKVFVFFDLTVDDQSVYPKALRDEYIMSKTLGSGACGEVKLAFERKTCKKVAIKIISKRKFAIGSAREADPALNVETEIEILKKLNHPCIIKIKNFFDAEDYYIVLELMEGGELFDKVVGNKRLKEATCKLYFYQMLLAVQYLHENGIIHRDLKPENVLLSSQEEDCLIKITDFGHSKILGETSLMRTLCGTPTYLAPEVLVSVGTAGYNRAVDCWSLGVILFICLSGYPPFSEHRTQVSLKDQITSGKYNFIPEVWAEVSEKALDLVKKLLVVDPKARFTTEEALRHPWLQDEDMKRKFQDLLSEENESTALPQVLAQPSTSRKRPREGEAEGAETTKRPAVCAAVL
Chain of CIT, construct: aa1-449 (O14578 1-449, looked up): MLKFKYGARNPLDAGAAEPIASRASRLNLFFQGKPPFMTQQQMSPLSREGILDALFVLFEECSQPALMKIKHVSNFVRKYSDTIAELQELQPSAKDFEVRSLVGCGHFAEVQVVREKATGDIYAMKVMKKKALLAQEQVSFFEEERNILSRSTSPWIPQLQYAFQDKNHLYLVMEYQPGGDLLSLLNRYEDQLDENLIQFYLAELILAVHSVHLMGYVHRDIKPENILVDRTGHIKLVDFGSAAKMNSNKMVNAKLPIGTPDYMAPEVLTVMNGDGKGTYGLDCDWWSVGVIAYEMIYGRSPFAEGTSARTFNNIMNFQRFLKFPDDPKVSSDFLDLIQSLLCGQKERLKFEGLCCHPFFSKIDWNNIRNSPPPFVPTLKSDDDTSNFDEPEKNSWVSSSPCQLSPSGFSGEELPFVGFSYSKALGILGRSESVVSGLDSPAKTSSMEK
Chain of CLK3, construct: Full length (P49761 whole entry, looked up): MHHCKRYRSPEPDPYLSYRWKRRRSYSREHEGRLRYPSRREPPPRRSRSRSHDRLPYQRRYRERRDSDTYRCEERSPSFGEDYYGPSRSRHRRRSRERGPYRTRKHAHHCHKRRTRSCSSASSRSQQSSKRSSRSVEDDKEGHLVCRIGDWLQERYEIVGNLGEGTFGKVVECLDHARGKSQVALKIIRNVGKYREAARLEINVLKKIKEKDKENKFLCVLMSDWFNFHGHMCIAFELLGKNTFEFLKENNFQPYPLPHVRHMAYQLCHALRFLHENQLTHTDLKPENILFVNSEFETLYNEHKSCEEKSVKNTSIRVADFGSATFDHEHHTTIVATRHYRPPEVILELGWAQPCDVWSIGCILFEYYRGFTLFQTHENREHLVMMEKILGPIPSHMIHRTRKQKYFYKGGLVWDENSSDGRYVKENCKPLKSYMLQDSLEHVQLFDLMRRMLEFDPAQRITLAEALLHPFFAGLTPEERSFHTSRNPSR

CHEK2, construct: Full length (from UniProt O96017)
relative phosphorylation
Conditions	at +1	at +2	at +3	at +4	at -1	at -2	at -3	at -4	at -5
A fixed	0.589	0.731	0.81	0.837	0.816	1.26	0.562	0.987	0.172
D fixed	0.317	0.397	0.484	0.53	0.702	0.276	0.1	0.367	0.236
E fixed	0.402	0.382	0.407	0.541	0.383	0.785	0.136	0.839	0.307
F fixed	1.88	1.06	1.33	0.985	0.809	0.672	0.197	0.895	1.42
G fixed	0.741	0.784	0.818	0.987	0.707	0.679	0.275	0.743	0.514
H fixed	0.892	1.43	1.05	1.27	1.21	1.01	0.614	0.953	0.619
I fixed	1.51	0.934	0.975	0.941	0.81	0.598	0.199	0.924	1.7
K fixed	1.02	1.12	1.16	1.33	1.71	1.53	2.26	1.63	0.694
L fixed	1.41	0.851	1.02	0.859	1.28	0.843	0.217	1.02	2.42
M fixed	1.5	0.978	1.04	0.929	1.15	1.37	0.256	1.17	1.55
N fixed	0.93	0.941	0.889	1.14	1.61	0.832	0.208	0.651	0.491
P fixed	0.389	0.946	0.956	1.04	1.06	0.219	0.177	0.548	1.03
Q fixed	0.877	0.801	0.857	0.945	0.84	1.71	0.543	1.09	0.815
R fixed	1.34	1.97	1.53	1.65	1.63	2.92	10.5	2.23	1.52
V fixed	1.04	0.875	0.848	0.731	0.777	0.621	0.205	1.1	1.39
W fixed	1.07	1.24	1.44	1.17	0.587	0.639	0.284	0.807	0.914
Y fixed	1.09	1.55	1.39	1.12	0.924	1.04	0.265	1.05	1.19
pThr fixed	0.96	1.06	0.653	0.586	0.354	0.477	0.214	0.662	0.472
pTyr fixed	0.529	0.489	0.659	0.575	0.603	0.4	0.178	0.574	0.725

CIT, construct: aa1-449 (from UniProt O14578)
relative phosphorylation
Conditions	at +1	at +2	at +3	at +4	at -1	at -2	at -3	at -4	at -5
A fixed	0.788	1.01	0.8	0.784	0.721	0.715	0.553	1	0.448
D fixed	0.453	0.586	0.789	0.886	0.385	0.254	0.176	0.422	0.299
E fixed	0.373	0.517	0.638	0.851	0.372	0.28	0.171	0.504	0.276
F fixed	1.34	1	1.37	0.882	0.778	0.406	0.259	0.622	0.767
G fixed	0.937	2.04	1.1	1.13	0.905	0.435	0.382	0.931	0.498
H fixed	1.24	1.3	1.67	1.15	1.75	0.874	0.797	0.997	0.804
I fixed	0.914	0.884	0.866	0.948	0.394	0.693	0.251	0.612	1.09
K fixed	0.779	0.694	0.781	0.858	2.2	3.1	1.76	2.77	1.75
L fixed	1.02	0.768	0.995	1.01	0.874	0.826	0.25	0.74	0.89
M fixed	1.14	0.77	0.889	1.03	0.888	0.88	0.303	0.801	0.603
N fixed	1.41	1.06	0.882	1.14	1.17	0.779	0.4	0.735	0.465
P fixed	0.461	1.36	1.23	1.43	1.39	0.42	0.739	0.978	0.631
Q fixed	1.15	0.762	0.931	1.04	0.969	1.03	0.7	0.924	0.72
R fixed	1.05	0.907	0.763	0.874	1.85	4.68	9.39	3.11	5.94
V fixed	0.734	0.86	0.816	0.805	0.506	0.838	0.299	0.683	0.523
W fixed	1.55	1.16	1.31	1.21	0.682	0.407	0.302	0.571	0.591
Y fixed	1.66	1.33	1.17	0.979	1.17	0.389	0.272	0.598	0.707
pThr fixed	0.466	0.609	0.878	1.12	0.349	0.323	0.259	0.491	0.405
pTyr fixed	0.784	0.65	0.802	0.925	0.34	0.333	0.226	0.395	0.554

CLK3, construct: Full length (from UniProt P49761)
relative phosphorylation
Conditions	at +1	at +2	at +3	at +4	at -1	at -2	at -3	at -4	at -5
A fixed	0.914	1.22	0.84	1.18	0.969	1.52	0.79	0.812	1.06
D fixed	0.555	1.69	0.683	1.62	0.872	1.26	1.43	1.4	1.87
E fixed	1.27	1.91	0.622	1.34	0.915	1.8	1.19	1.38	1.04
F fixed	0.282	0.536	0.348	0.694	0.306	0.342	0.339	0.516	0.773
G fixed	0.984	0.987	0.917	0.938	1.03	1.35	0.853	1.1	0.928
H fixed	0.735	0.971	1.07	0.869	0.799	0.732	0.607	0.885	0.899
I fixed	0.382	0.381	0.47	0.681	0.203	0.33	0.282	0.417	0.523
K fixed	2.02	1.6	3.25	2.08	2.62	1.33	2.38	1.38	1.53
L fixed	0.478	0.506	0.438	0.748	0.376	0.307	0.31	0.492	0.599
M fixed	0.659	0.574	0.424	0.724	0.405	0.39	0.359	0.613	0.492
N fixed	1.06	1.03	1.1	0.885	1.55	0.853	0.779	0.961	0.846
P fixed	4.92	1.69	1.81	0.963	2.15	1.9	1.76	1.87	0.949
Q fixed	0.983	0.898	0.707	1.01	1.62	0.904	0.852	0.996	0.973
R fixed	0.409	1.35	2.93	1.1	2.1	2.72	3.78	2.05	2.05
V fixed	0.619	0.52	0.457	0.796	0.367	0.432	0.436	0.535	0.735
W fixed	0.368	0.628	0.483	0.732	0.37	0.39	0.457	0.879	1.07
Y fixed	0.368	0.517	0.439	0.649	0.348	0.435	0.403	0.704	0.674
pThr fixed	0.887	2.44	0.951	2.16	0.555	0.817	1.05	1.27	1.12
pTyr fixed	1.23	0.956	0.877	1.3	1.1	0.87	0.997	1.05	0.98

Source: the supplement of paper PMC9876800
